{"source": "the nanobody polyreactivity screen of Harvey et al. (2022)", "data": [{"test": "yeast display, Sf9 membrane polyspecificity reagent, FACS + sequencing; frameworks hold sequencing errors", "how_it_was_run": "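After 36–48 hours of galactose induction, yeast (Saccharomyces cerevisiae BJ5465) displaying a synthetic nanobody library were stained at 4 °C for 1 hour with 10% biotinylated, detergent-solubilized Sf9 membrane reagent. Streptavidin microbeads enriched the stained cells before FACS sorting into low and high (top ~1%) gates on anti-HA and streptavidin fluorescence. Each clone's polyreactivity label reflects its gate of origin.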", "values": [{"sequence": "QVQLVESGGGLVQAGGSLRLSCAASGSIFVYYAMGWYRQAPGKERELVAAINFRGGNTYYADSVKGRFTISRDNAKNTVYLQMNSLKPEDTAVYYCAADYRWKWIGGARYDYWGQGTQVTVSS", "polyreactivity (PSR sort gate)": "low polyreactivity"}, {"sequence": "QVQLVESGGALDQAGGSLRLSCAASGFFRYAMGSYRQAPGKERELVAAITSGGRTNYADSVKGRFTISRDNAKNTVYLQMNSLKPEDTAVYNCAADQGSRSEELDYWGQGTQVTVSS", "polyreactivity (PSR sort gate)": "low polyreactivity"}, {"sequence": "QVQLVESGGGLVQAGGSLRLSCAASGFTFSYYAMGWDRQAPGKERELVAVISNSDGSTYYADSVKGRFTISRDNAKNTVYLQMNSLNPEDTAVYYCAAVPLWDYKFFYYLLYDYWGQGTQVTVSS", "polyreactivity (PSR sort gate)": "low polyreactivity"}, {"sequence": "QVQLVESGGGIVQAGGSLRLSCAASGRIFQRYTMGWYRQAPGKEREFVAAITYSGGSTHYADSVKGRFTISRDNAKNTVYLQMNSLKPEDTAVYYCNADRYYGRGYGYWGQGTQVTVSS", "polyreactivity (PSR sort gate)": "low polyreactivity"}, {"sequence": "QVQLVETGGGLVQAGGSLRLSCAASGSTVRFNAMGWYRQAPGKERELVAVIRWRGGTTYYADSVKGRFTISRDNAKNTVYLQMNSLKPVDTAVYYCNADYWFSYTWHGSYTVGYWGQGTQVTVSS", "polyreactivity (PSR sort gate)": "high polyreactivity"}, {"sequence": "QVQLVESGGCLVPAGGSLRLSCAASGHTFSSYAMGWYRQAPGKERELVAAISVSATRTYYADSVKGRFTISRDNAKNTVYLQMNSLKPEDTAVFYCAARPVQFTYGYWGQGTQVTVSS", "polyreactivity (PSR sort gate)": "high polyreactivity"}, {"sequence": "QVQLVESGGGLVQAGGSLRLSCAASGSTFYVYAMGWYRQAPGKERELVAAINFNGGGTYYADSVKGRFTISRDNAMNTVYLQMNSLKPEDTAFYYCNAEDDYTYDRSFGGYKYDYWGQGTQVTVSS", "polyreactivity (PSR sort gate)": "low polyreactivity"}, {"sequence": "QVQLVESGGGLVQAGGSLRLSCAASGITFTSYVMGWYRQAPGKERELVAAIRWSGGRTYYADSVKGRFTITRDNAKNTVYLQMNSLKPEDTAGYYCAAKRKPRPSYRYGYWGQGTQVTVSS", "polyreactivity (PSR sort gate)": "high polyreactivity"}, {"sequence": "QVQLVESGGGLVQAGGSLRLSCAASGSIFQQYAMGWYRQAPGKERELVAAISWGDGSTYYADSVKGRFTISRDNAKNTVYLQKNSLKPEDTAVYYCNAYASAPLWSLEDDYWGQGTQVTVSS", "polyreactivity (PSR sort gate)": "low polyreactivity"}, {"sequence": "QVQLVESGGGLVQAGGSLRLSCAASGSIFVTNAMGWYRQAPGKERELVAAISWSGDNTYYADSVKGRFTISRDNAKNTFYLQMNSLIPEDTAVYYCSTDVWYSYDYYYGDWGYEYWGQGTQVTVSS", "polyreactivity (PSR sort gate)": "high polyreactivity"}, {"sequence": "QVHLVESGGGLVQAGGSLRLSCAASGSIFSYYAMGWYRQAPGKERELVAAISQSGGSTYYADSVKGRFTISRDNAKNTVYLQMNSLKPEDTAVNYCNAGRGTFKRYTALQYWGQGTQVTVSS", "polyreactivity (PSR sort gate)": "low polyreactivity"}, {"sequence": "QVQLVESGGGLVQAGGSLRLSCAASGSTFGWYTMGWYRQAPGKERELVAAINYSGGSTYYADSVKGRFTISRDNAKNTVYLQMNSLKPEDTAVYYCATDQSTYLYGYYYWGQGTQVTVSS", "polyreactivity (PSR sort gate)": "low polyreactivity"}, {"sequence": "QVQLVESGGGLVQAGGSLRLSCAASGIIFYNNAMGWYRKAPGKERELVADITSGNTNYADSVKGRFTISRDNAKNTVYLQMNSLKPEDTAVYYCNAEDDYTYDRSFGGYKYDYWGQGTQVTVSS", "polyreactivity (PSR sort gate)": "low polyreactivity"}, {"sequence": "QVQLVESGGGLVQAGGSLRLSCAASGSTFSGYAMGWYRQAPGKERELVAAITSGGSTNYADSVKGRFTISRDNAKNTVYLQMNSLKPEDTAVYYCAADSREVSTTAYYYWGQGTQVTVSS", "polyreactivity (PSR sort gate)": "low polyreactivity"}, {"sequence": "QVQLVESGGGLVQAGGSLRLSCAASGSISWAYVMGWYRQAPGKERELVAAISSGTSTYYADSVKGRFTLSRDNAKKTVYLQMNSLKPEDTAVYYCAAYYYSYPTNGGYGYWGQGTQVTVSS", "polyreactivity (PSR sort gate)": "low polyreactivity"}, {"sequence": "QVQLVESGGGLVQAGGSLRLSCAASGFIFVSNAMGWYRQAPGKERELVATITNGDRTYYADSVKGRFPISRDNAKNTVYLQMNSLKPEDTAVYYCNADFRAREVFLFDSWGQGTQVTVSS", "polyreactivity (PSR sort gate)": "low polyreactivity"}, {"sequence": "QVQLVESGGGIVQAGGSLRLSCPASGRIFGPNAMGGYRQAPGKERELVAVISRRGTSTYYADSVKGRFTISRDNAKNTVYLQMNRLKPEDTAVYYCAAGGHYLYDYWGQGTQVTVSS", "polyreactivity (PSR sort gate)": "high polyreactivity"}, {"sequence": "QVQLVESGGGLVQAAGSLRLSCAASGRTFSGYAMGWYRQAPGKERELVAAIRWSGGSTYYADSVKGRFTISRDNAKNTVYLQMNSLKPEDTAVYYCATRDYYYRYGYWGQGTQVTVSS", "polyreactivity (PSR sort gate)": "high polyreactivity"}, {"sequence": "QVQLVESGGGLVQAGGSLRLSCAASGRIFNAYAMGGYRQAPGKERELVAAISGGGRTYYADSVKGRFTISRDNAKNTVYLQMNSLKPEDTAVYYCAADSPTQSTLGKYDYWGQGTQVTVSS", "polyreactivity (PSR sort gate)": "high polyreactivity"}, {"sequence": "QVQLVESGGGLVQAGGSLRLSCAASGRIFGIYAMGWYRQAPGKERELVAAISFIGGRTYYADSVKGRFTISRDNAKNTVYLQMNSLKPEDTAVYYCAARTVPSSRREYWGQGTQVTVSS", "polyreactivity (PSR sort gate)": "high polyreactivity"}, {"sequence": "QVQLVESGGGLVQAGGSLRLSCAASGSIFKYYAMGWYRQAPGKERELDAAISYSGGRTYYADSVKGRFTISRDNAKNTVYLQMNSLKPEDTAVYYCATDYYYRSAKFLGDYWGQGTQVTVSS", "polyreactivity (PSR sort gate)": "high polyreactivity"}, {"sequence": "QVQLVESGGGLVQAGGSLRLSCAASGSTFYYNTMGWYRQAPGKERELVAAISWRGGSTYYADSVKGRFTISRDNAKNTVYLLMNSLKPVDTAVYYCAAGWYPRSVRPFESFVGLDYWGQGTQVTVSS", "polyreactivity (PSR sort gate)": "high polyreactivity"}, {"sequence": "QVQLVESGGGLVQAGGSLRLSCAASGYTFDYYAMGWYRQAPGKERELVAAISGSGSRTYYADSVKGRFTISRDNAKNTVYFQMNSLKPEDTAVYYCAAEYYYSDAGNYWGQGTQVTVSS", "polyreactivity (PSR sort gate)": "high polyreactivity"}, {"sequence": "QVQLVESGGGLVQAGGSLRLSCAASGFTFAYYAMGWYRQAPGKERELVAAISSGGGTYYADSVKGRFTISRDNAKNTVYLQMNSLKPEDTAVYYCNAANGRYIGSRYVVYTGFYYWGQGTQVTVSS", "polyreactivity (PSR sort gate)": "high polyreactivity"}, {"sequence": "QVQLVESGGGLVQAGGSLRLSCAASGITFPHYAMGWYRQAPGKERELVAAISSSGGRTYYADSVKGRFTISRDNAKNTVYFQMNSLKPEDTAVYYCNKLRYPLLPPKYYYWGQGTQVTVSS", "polyreactivity (PSR sort gate)": "high polyreactivity"}, {"sequence": "QVQLVESGGGLVQAGGSLRLSCAASGSTFYQYVMGWYRQAPGKERELVAAISGSGGSTYYADSVKGRFTISRDNAKTTVYLQMNSLKPEDTAVYYCAAVGRSKRDGYWGQGTQVTVSS", "polyreactivity (PSR sort gate)": "high polyreactivity"}, {"sequence": "QVQLVESGGGLVQAGGSLRLSCAASGSIFRYYAMGWYRQAPGKERELVAAITASGGRTHYADSVKGRFTISRDNAKNTVYLQMNSLKLEDTAVYYCSADLYYAWYWKQHYDYWGQGTQVTVSS", "polyreactivity (PSR sort gate)": "high polyreactivity"}, {"sequence": "QVQLVESGGGLVQAGGSLRLSCAASGSTFRVYAMGWYRPAPGKVRELVAAISGSGTSTYYADSVKGRFTISRDNAKNTVYLQMNSLKPEDTAVYYCATGKNYWRGYEYWGQGTQVTVSS", "polyreactivity (PSR sort gate)": "high polyreactivity"}, {"sequence": "QVQLVESGGGLVQEGGSLRLSCAASGSTFSYNAMGWYRQAPGKERELVAAITSGSSTNYADSVKGRFTISRDNAKNTVYLQMNSLKPEDTAVYYCAADGYQDKYYWLETWVGYWGQGTQVTVSS", "polyreactivity (PSR sort gate)": "low polyreactivity"}, {"sequence": "QVQLVESGGGLVQAGGSLRLSCAASGFIIRGNVMGWYRQAPGKERELVAAISGRGGSTYYADSVKGRFTISRDNAKNTVYLQMNSLKPEDTAVYYCNAAGLYNSRLDYWGQGTQVTVSS", "polyreactivity (PSR sort gate)": "high polyreactivity"}, {"sequence": "QFQLVESGGGLVQAGGSLRLSCAASGRTFKVYAMGCYRQAPGKERELVAAITGGGSTNYADSVKGRFTISRDNAKNTVYLQMNSLKAEDTAVYYCNARYYYRLVKWSRFSSYDFWGQGTQVTVSS", "polyreactivity (PSR sort gate)": "low polyreactivity"}, {"sequence": "QVQLVESGGGLVQAGGSLRLSCAASGRTFSRNAMAWYRQAPGKERELVAAISRRGVSTYYADSVKGRFTISRDNAKNTVYLQMNSLKPDDTAVFYCNTRGTYRYDYWGQGTQVTVSS", "polyreactivity (PSR sort gate)": "low polyreactivity"}, {"sequence": "QVQLVESGGCLVQAGGSLRLSCAASGRTFGRNAMGWYRKAPGKERDLVAAISRSGASTYYADSVKGRFTISRDNAKITVYLQMNSLKEEDTAVYYCAKDVWGSRYAYDYWGQGTQVTVSS", "polyreactivity (PSR sort gate)": "low polyreactivity"}, {"sequence": "QVQLVESGGGLVQAGGSLRLSCAASGFIVGRYAMGWYRQAPGNERELVAAITRSGGSTYYADSVKGRFTISRDNAKNTVYLQMISLKPEQTAVYFGAAYPGRAQVAYDYWGQGTQVTVSS", "polyreactivity (PSR sort gate)": "high polyreactivity"}, {"sequence": "QVQLVESGGGLVQAGGSLRLSCAASGSTFARNAMGWYRPAPGKERELVAAITNAGDTNYADSVKGRFTISRDNAKNTVYLQMNSLKPEDTAVYYCAADTRFYSGRGTVSGDYWGQGTQVTVSS", "polyreactivity (PSR sort gate)": "low polyreactivity"}, {"sequence": "QVQLVESGGGLVKAGGSLRLSCAASGLTLPANAMGWYRQAPGKEREFVAAISVGGDTTSYADSVKGRFTISRDNAKNTVYLQMNSLKPEDTAVYYCAADEIHDPRTYRGSAGDYWGQGTQVTVSS", "polyreactivity (PSR sort gate)": "low polyreactivity"}, {"sequence": "QVQLVESGGGLVQAGGSLRLSCAASGFIFTGYAMGWYRQAPGKERELVAAISWTGDSTYYADSVKGRFTISRDNAKNTVYLQMNSLKPEDTAVYYCAARSYRKPSSRRFDYWGQGTQVTVSS", "polyreactivity (PSR sort gate)": "low polyreactivity"}, {"sequence": "QVQLVESGGGLVQAGGSLRLICAASGSIFADYAMGWYRQAPGKERELVAAITGSGGRTYYADSVKGRFTISRDNAKNTVYLQMNSLKPEDTAVYYCAAYQVVWDPYTRYDYWGQGTQVTVSS", "polyreactivity (PSR sort gate)": "low polyreactivity"}, {"sequence": "QVQLVESGGGLVQAGGSLRLSCAASGSTIFENVMGWYRQAPGKEREFVAAINTSGGSTYYADSVKGRFTISRDNAKYTVYLQMNSLKPEDTAVYYCARDSYWEMDYWGQGTQVNVSS", "polyreactivity (PSR sort gate)": "low polyreactivity"}, {"sequence": "QVQLVESGGGLVQAGGSLRLSCAASGLTFDGYAKGWYRPAPGKERELVAAISSSSGRTYYADSVKGRFTISRDNAKNTVYLQMNSLKPEDTEVYYCNAVTTGVYKDYYYWGQGTQVTVSS", "polyreactivity (PSR sort gate)": "high polyreactivity"}, {"sequence": "QVQLVESGGGLVQAGGSLRLSCAASGRTFWYYGMGWYRQAPGKERELVAAISRSGGRTSYADSVKGRFTISRDNAKNTVYLQMNSLKPEDTAVYYCATDGYYRYGYWGQGTQVTVAS", "polyreactivity (PSR sort gate)": "high polyreactivity"}, {"sequence": "QVQLEESGGGLVQAGGSLRLSCAASGSIFSYNSMGWYRQAPGKDREFVATIDWRDGSTYYADSVKGRFTISRDNGKNTVYLQMNSMKPEDTAVYYCATDYIVVEDYYWGQGTQVTVSS", "polyreactivity (PSR sort gate)": "high polyreactivity"}, {"sequence": "QVQLVESAGGLVQAGGSLRLICAASGSILQPYAMGWYRQAPGKERELVAYISYSGASTYYADSVKGRFTISRDNPKNTVYLQLNSLKPEDPAVYYCNARYWYHYLTYDYSGQGTQVTVSS", "polyreactivity (PSR sort gate)": "high polyreactivity"}]}]}
